Assay [1] has as its target the class I heavy chains (H-2Kb, Db, Kd, and Ld; Fig. 9). The experiment in a line: co-IP.
Assay [2] concerns the target the other three class I molecules (Bio-Gel A0.5m). The assay can be described thus: SEC.
Assay [3] has as its target H-2Kd class I heavy chain (mouse (endogenous in MDAY-D2)). The assay can be described thus: cross-linking.
Assay [4] concerns the target H-2Kb class I heavy chain (mouse (endogenous in EL4)). The assay can be described thus: cross-linking.
Assay [5] concerns the target H-2Db class I heavy chain (mouse (endogenous in EL4)). The assay can be described thus: cross-linking.
Assay [6] has as its target H-2Ld class I heavy chain (mouse (endogenous in MDAY-D2)). The assay can be described thus: cross-linking.

We go through two molecules from article PMC2288894.

Chain of H-2Db class I heavy chain (mouse (endogenous in EL4)) (P01899 25-362): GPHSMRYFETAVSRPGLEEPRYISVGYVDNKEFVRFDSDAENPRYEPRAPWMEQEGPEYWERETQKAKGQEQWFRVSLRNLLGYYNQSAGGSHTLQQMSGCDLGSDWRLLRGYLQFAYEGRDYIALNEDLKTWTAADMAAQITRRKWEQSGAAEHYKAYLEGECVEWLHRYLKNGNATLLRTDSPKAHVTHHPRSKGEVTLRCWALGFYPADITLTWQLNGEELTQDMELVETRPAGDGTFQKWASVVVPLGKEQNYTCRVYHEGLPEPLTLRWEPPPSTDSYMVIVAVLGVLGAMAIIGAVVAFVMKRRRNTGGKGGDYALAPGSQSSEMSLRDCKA
Chain of H-2Kb class I heavy chain (mouse (endogenous in EL4)) (P01901 22-369): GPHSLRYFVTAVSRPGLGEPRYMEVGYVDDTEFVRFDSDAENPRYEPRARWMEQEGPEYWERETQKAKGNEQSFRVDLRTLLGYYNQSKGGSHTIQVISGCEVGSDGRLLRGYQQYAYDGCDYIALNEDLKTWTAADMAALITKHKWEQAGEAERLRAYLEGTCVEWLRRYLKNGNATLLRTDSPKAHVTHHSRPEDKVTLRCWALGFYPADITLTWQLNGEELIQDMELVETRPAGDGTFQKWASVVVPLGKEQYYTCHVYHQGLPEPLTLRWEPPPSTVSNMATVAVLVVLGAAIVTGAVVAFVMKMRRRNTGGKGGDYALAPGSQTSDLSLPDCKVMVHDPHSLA
Chain of H-2Kd class I heavy chain (mouse (endogenous in MDAY-D2)) (P01902 22-368): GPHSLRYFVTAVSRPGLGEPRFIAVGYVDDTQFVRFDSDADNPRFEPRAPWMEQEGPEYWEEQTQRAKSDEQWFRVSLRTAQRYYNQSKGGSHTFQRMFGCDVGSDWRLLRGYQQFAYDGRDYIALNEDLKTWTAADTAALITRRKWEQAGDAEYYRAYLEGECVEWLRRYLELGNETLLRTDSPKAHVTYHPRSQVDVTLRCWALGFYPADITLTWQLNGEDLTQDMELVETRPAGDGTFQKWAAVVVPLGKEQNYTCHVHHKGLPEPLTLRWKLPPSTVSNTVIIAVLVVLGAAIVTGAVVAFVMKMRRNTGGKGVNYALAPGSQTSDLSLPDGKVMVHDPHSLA
Chain of H-2Ld class I heavy chain (mouse (endogenous in MDAY-D2)) (P01897 25-362): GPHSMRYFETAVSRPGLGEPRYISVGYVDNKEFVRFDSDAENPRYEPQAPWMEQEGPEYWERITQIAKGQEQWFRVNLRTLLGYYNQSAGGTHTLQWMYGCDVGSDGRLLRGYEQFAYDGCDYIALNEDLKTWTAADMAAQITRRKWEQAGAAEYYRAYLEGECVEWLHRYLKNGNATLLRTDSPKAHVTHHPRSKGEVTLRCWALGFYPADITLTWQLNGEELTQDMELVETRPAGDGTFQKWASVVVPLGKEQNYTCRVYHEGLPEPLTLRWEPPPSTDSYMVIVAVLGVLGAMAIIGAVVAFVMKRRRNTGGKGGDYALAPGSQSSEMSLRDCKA

“beta 2-microglobulin (from UniProt P01887 21-119) (natural protein)” had a half-time of association post pulse (in cells) in assay [1] of 2 to 5 min.

B1: p88 (novel 88-kD protein) (natural protein)
chain: HDGHDDDAIDIEDDLDDVIEEVEDSKSKSDASTPPSPKVTYKAPVPTGEVYFADSFDRGSLSGWILSKAKKDDTDDEIAKYDGKWEVDEMKETKLPGDKGLVLMSRAKHHAISAKLNKPFLFDTKPLIVQYEVNFQNGIECGGAYVKLLSKTAELSLDQFHDKTPYTIMFGPDKCGEDYKLHFIFRHKNPKTGVYEEKHAKRPDADLKTYFTDKKTHLYTLILNPDNSFEILVDQSVVNSGNLLNDMTPPVNPSREIEDPEDRKPEDWDERPKIADPDAVKPDDWDEDAPSKIPDEEATKPEGWLDDEPEYIPDPDAEKPEDWDEDMDGEWEAPQIANPKCESAPGCGVWQRPMIDNPNYKGKWKPPMIDNPNYQGIWKPRKIPNPDFFEDLEPFKMTPFSAIGLELWSMTSDIFFDNFIISGDRRVVDDWANDGWGLKKAADGAAEPGVVLQMLEAAEERPWLWVVYILTVALPVFLVILFCCSGKKQSNAMEYKKTDAPQPDVKDEEGKEEEKNKRDEEEEEEKLEEKQKSDAEEDGVTGSQDEEDSKPKAEEDEILNRSPRNRKPRRE
In assay [2], B1 came in with a percent of heavy chains in the oligomeric species in the pulse-labeled sample of 20 to 60%. In addition, the half-time of disappearance of the complex after the pulse (in cells) in assay [3] was determined as 38 min; in assay [4], 20 min; in assay [5], 45 min; in assay [6], 45 min. The half-time of p88 dissociation in the presence of BFA (in cells) turned out to be 23 min in assay [4] and 42 min in assay [5].
